Reference: patent US20250009799A1

Target: SH2D3A peptide on HLA-A*02:01 (human)
Test: T2/peptide TDCC potency screen with TCR2-T-IL12 cells, peptide titration; reference: DCAF4L2 target peptide; full-length, on cells
Conditions: chains Valpha:Vbeta

- EC50 of peptide relative to the DCAF4L2 target peptide: 87 fold
B1: TCR2 (protein)
chain 1: EDQVTQSPEALRLQEGESSSLNCSYTVSGLRGLFWYRQDPGKGPEFLFTLYSAGEEKEKERLKATLTKKESFLHITAPKPEDSATYLCAVQAWGGGSQGNLIFGKGTKLSVKP
chain 2: DSGVTQTPKHLITATGQRVTLRCSPRSGDLSVYWYQQSLDQGLQFLIQYYNGEERAKGNILERFSAQQFPDLHSELNLSSLELGDSALYFCASSAGDRGYEQYFGPGTRLTVT
